{"source": "paper PMC6683012", "parents": {"B1": {"name": "QSK1-nYFP [Arabidopsis] / SIRK1-cYFP [Arabidopsis] (parent)", "chain 1": "SDLESDRRALLAVRNSVRGRPLLWNMSASSPCNWHGVHCDAGRVTALRLPGSGLFGSLPIGGIGNLTQLKTLSLRFNSLSGPIPSDFSNLVLLRYLYLQGNAFSGEIPSLLFTLPSIIRINLGENKFSGRIPDNVNSATRLVTLYLERNQLSGPIPEITLPLQQFNVSSNQLNGSIPSSLSSWPRTAFEGNTLCGKPLDTCEAESPNGGDAGGPNTPPEKKDSDKLSAGAIVGIVIGCVVGLLLLLLILFCLCRKRKKEENVPSRNVEAPVAAATSSAAIPKETVVVVPPAKATGSESGAVNKDLTFFVKSFGEFDLDGLLKASAEVLGKGTVGSSYKASFEHGLVVAVKRLRDVVVPEKEFRERLHVLGSMSHANLVTLIAYYFSRDEKLLVFEYMSKGSLSAILHGNKGNGRTPLNWETRAGIALGAARAISYLHSRDGTTSHGNIKSSNILLSDSYEAKVSDYGLAPIISSTSAPNRIDGYRAPEITDARKISQKADVYSFGVLILELLTGKSPTHQQLNEEGVDLPRWVQSVTEQQTPSDVLDPELTRYQPEGNENIIRLLKIGMSCTAQFPDSRPSMAEVTRLIEEVSHSSGSPNPVSD", "chain 2": "VTETELRSLLEFRKGIRDETSHQRISWSDTSSLTDPSTCPNDWPGISCDPETGSIIAINLDRRGLSGELKFSTLSGLTRLRNLSLSGNSFSGRVVPSLGGISSLQHLDLSDNGFYGPIPGRISELWSLNHLNLSSNKFEGGFPSGFRNLQQLRSLDLHKNEIWGDVGEIFTELKNVEFVDLSCNRFNGGLSLPMENISSISNTLRHLNLSHNALNGKFFSEESIGSFKNLEIVDLENNQINGELPHFGSQPSLRILKLARNELFGLVPQELLQSSIPLLELDLSRNGFTGSISEINSSTLTMLNLSSNGLSGDLPSSFKSCSVIDLSGNTFSGDVSVVQKWEATPDVLDLSSNNLSGSLPNFTSAFSRLSVLSIRNNSVSGSLPSLWGDSQFSVIDLSSNKFSGFIPVSFFTFASLRSLNLSRNNLEGPIPFRGSRASELLVLNSYPQMELLDLSTNSLTGMLPGDIGTMEKIKVLNLANNKLSGELPSDLNKLSGLLFLDLSNNTFKGQIPNKLPSQMVGFNVSYNDLSGIIPEDLRSYPPSSFYPGNSKLSLPGRIPADSSGDLSLPGKKHHSKLSIRIAIIVASVGAAIMILFVLFAYHRTQLKDFHGRNRFTDQATTRDTKFGRSSRPSLFNFSSNVEQQSSSLSFSNDHLLTANSRSLSGIPGCEAEISEQGAPATSAPTNLLDDYPAASGRKSSSGGSPLSSSPRFSDQPVMLDVYSPDRLAGELFFLDVSLKLTAEELSRAPAEVLGRSSHGTLYKATLDNGHMLTVKWLRVGLVRHKKDFAREAKKIGSLKHPNIVPLRAYYWGPREQERLLLSDYLRGESLAMHLYETTPRRYSPMSFSQRLKVAVEVAQCLLYLHDRAMPHGNLKPTNIILSSPDNTVRITDYCVHRLMTPSGVAEQILNMSALGYSAPELSSASKPIPTLKSDVYAFGVILMELLTRRSAGDIISGQTGAVDLTDWVRLCDQEGRRMDCIDRDIAGGEEFSKGMEDALAVAIRCILSVNERPNIRQVLDHLTSISA"}, "B2": {"name": "SIRK1-cYFP [Arabidopsis] / QSK1-nYFP [Arabidopsis] (parent)", "chain 1": "B1 chain 2", "chain 2": "B1 chain 1"}, "B3": {"name": "SIRK1-cYFP [Arabidopsis] / QSK2-nYFP [Arabidopsis] (parent)", "chain 1": "B1 chain 2", "chain 2": "DLEADRRALIALRDGVHGRPLLWNLTAPPCTWGGVQCESGRVTALRLPGVGLSGPLPIAIGNLTKLETLSFRFNALNGPLPPDFANLTLLRYLYLQGNAFSGEIPSFLFTLPNIIRINLAQNNFLGRIPDNVNSATRLATLYLQDNQLTGPIPEIKIKLQQFNVSSNQLNGSIPDPLSGMPKTAFLGNLLCGKPLDACPVNGTGNGTVTPGGKGKSDKLSAGAIVGIVIGCFVLLLVLFLIVFCLCRKKKKEQVVQSRSIEAAPVPTSSAAVAKESNGPPAVVANGASENGVSKNPAAVSKDLTFFVKSFGEFDLDGLLKASAEVLGKGTFGSSYKASFDHGLVVAVKRLRDVVVPEKEFREKLQVLGSISHANLVTLIAYYFSRDEKLVVFEYMSRGSLSALLHGNKGSGRSPLNWETRANIALGAARAISYLHSRDATTSHGNIKSSNILLSESFEAKVSDYCLAPMISPTSTPNRIDGYRAPEVTDARKISQKADVYSFGVLILELLTGKSPTHQQLHEEGVDLPRWVSSITEQQSPSDVFDPELTRYQSDSNENMIRLLNIGISCTTQYPDSRPTMPEVTRLIEEVSRSPASPGPLSD"}}, "data": [{"variants_of": "B1", "experiment": "ratiometric bimolecular fluorescence complementation (rBiFC)", "conditions": "with SIRK1-cYFP [Arabidopsis]; n=12 cells (parent n=10); value is box-plot median; parent: 0.9; read off a plot", "values": [{"variant": "chain 1 S598D S603D", "response": 1.8}]}, {"variants_of": "B1", "experiment": "ratiometric bimolecular fluorescence complementation (rBiFC)", "conditions": "with SIRK1-cYFP [Arabidopsis]; n=14 cells (parent n=10); value is box-plot median; parent: 0.9; read off a plot", "values": [{"variant": "chain 1 S598A S603A", "response": 1}]}, {"variants_of": "B2", "experiment": "ratiometric bimolecular fluorescence complementation (rBiFC)", "conditions": "with QSK1-nYFP [Arabidopsis]; n=10 cells (parent n=10); value is box-plot median; parent: 0.9; read off a plot", "values": [{"variant": "chain 1 S723D", "response": 1.3}, {"variant": "chain 1 S723A", "response": 0.18}]}, {"variants_of": "B3", "experiment": "ratiometric bimolecular fluorescence complementation (rBiFC)", "conditions": "with QSK2-nYFP [Arabidopsis]; n=35 cells (parent n=32); value is box-plot median; parent: 1.6; read off a plot", "values": [{"variant": "chain 1 S723D", "response": 1.7}]}, {"variants_of": "B3", "experiment": "ratiometric bimolecular fluorescence complementation (rBiFC)", "conditions": "with QSK2-nYFP [Arabidopsis]; n=34 cells (parent n=32); value is box-plot median; parent: 1.6; read off a plot", "values": [{"variant": "chain 1 S723A", "response": 0.15}]}]}
